{"source": "paper PMC3109872", "binders": {"B1": {"name": "EBS3 probe (Ccl9) (dsDNA)", "DNA 1": "CTCTAGTACCAGGGAATTTAACACCCTCTTC", "DNA 2": "GAAGAGGGTGTTAAATTCCCTGGTACTAGAG"}}, "molecular_target": "ETV5 DNA-binding domain (pET-41a) (UniProt Q9CXC9 368-448)", "sequence (Q9CXC9 368-448)": "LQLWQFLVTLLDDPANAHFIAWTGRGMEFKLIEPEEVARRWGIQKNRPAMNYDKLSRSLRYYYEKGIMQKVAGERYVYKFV", "test": "EMSA", "data": [{"binder": "B1", "values": [{"measurement": "binding result", "result": "binds"}]}]}
